Measured values as given in US9688764B2, “Methods of treating breast cancer by administering anti-human prolactin receptor (PRLR) antibodies” (REGENERON PHARMACEUTICALS, INC., priority 2013, dated 2017).

T1: T47D (native PRLR expressing cell line) (Homo sapiens, UniProt P16471)
T1 construct: a native PRLR expressing cell line (T47D); endogenous in cells; host or cells: T47D
T1 sequence (P16471 25-622): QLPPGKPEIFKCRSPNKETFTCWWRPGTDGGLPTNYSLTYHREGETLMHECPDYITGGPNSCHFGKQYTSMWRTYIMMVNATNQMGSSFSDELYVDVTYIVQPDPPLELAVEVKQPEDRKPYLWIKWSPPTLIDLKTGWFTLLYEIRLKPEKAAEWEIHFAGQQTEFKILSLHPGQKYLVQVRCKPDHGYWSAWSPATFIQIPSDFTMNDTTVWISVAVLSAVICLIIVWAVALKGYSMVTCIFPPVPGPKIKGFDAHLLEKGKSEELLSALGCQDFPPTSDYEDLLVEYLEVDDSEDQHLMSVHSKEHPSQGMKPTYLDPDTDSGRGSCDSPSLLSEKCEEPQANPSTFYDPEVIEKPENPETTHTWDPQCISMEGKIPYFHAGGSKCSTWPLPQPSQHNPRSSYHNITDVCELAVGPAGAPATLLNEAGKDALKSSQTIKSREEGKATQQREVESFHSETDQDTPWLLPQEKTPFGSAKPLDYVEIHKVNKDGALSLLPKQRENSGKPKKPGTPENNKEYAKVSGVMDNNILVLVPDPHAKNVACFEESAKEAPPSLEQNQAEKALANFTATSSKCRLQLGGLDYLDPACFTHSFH

T2: HEK293/hPRLR (Homo sapiens, UniProt P16471)
T2 construct: HA; expressed in transfected cells; host or cells: HEK293
T2 sequence (P16471 25-622): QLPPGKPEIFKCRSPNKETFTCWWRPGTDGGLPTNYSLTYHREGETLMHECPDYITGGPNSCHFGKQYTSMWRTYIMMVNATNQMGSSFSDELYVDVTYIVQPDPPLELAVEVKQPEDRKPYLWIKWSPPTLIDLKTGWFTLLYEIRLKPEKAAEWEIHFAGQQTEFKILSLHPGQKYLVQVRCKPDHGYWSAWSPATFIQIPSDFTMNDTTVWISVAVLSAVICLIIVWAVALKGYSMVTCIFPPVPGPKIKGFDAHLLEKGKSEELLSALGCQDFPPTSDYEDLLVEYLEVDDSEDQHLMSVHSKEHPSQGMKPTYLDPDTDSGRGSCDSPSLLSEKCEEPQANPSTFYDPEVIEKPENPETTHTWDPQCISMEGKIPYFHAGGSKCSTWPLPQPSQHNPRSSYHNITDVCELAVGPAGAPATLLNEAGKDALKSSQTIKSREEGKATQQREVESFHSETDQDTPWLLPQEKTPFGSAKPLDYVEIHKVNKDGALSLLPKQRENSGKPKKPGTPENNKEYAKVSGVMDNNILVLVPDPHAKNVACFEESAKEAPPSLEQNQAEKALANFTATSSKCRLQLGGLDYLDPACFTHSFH

T3: HEK293/mPRLR (Mus musculus, UniProt Q08501)
T3 construct: HA; expressed in transfected cells; host or cells: HEK293
T3 sequence (Q08501 20-608): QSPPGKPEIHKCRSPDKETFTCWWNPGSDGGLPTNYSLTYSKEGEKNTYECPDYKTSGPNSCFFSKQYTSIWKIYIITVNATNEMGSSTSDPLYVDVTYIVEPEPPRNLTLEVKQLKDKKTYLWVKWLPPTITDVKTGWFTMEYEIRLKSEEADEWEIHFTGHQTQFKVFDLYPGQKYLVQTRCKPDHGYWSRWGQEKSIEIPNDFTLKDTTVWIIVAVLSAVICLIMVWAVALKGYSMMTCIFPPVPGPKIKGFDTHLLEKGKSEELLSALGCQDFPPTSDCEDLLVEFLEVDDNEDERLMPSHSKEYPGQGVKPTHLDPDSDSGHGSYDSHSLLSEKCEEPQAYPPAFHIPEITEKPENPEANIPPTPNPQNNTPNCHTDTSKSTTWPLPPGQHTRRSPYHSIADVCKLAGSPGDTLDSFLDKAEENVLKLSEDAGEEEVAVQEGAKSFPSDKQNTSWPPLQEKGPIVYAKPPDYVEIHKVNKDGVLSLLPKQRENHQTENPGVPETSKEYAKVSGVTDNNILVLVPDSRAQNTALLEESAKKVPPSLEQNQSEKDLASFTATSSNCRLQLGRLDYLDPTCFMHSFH

T4: PRLR-expressing cells (T47D) (Homo sapiens, UniProt P16471)
T4 construct: a native PRLR expressing cell line (T47D); endogenous in cells; host or cells: T47D
T4 sequence (P16471 25-622): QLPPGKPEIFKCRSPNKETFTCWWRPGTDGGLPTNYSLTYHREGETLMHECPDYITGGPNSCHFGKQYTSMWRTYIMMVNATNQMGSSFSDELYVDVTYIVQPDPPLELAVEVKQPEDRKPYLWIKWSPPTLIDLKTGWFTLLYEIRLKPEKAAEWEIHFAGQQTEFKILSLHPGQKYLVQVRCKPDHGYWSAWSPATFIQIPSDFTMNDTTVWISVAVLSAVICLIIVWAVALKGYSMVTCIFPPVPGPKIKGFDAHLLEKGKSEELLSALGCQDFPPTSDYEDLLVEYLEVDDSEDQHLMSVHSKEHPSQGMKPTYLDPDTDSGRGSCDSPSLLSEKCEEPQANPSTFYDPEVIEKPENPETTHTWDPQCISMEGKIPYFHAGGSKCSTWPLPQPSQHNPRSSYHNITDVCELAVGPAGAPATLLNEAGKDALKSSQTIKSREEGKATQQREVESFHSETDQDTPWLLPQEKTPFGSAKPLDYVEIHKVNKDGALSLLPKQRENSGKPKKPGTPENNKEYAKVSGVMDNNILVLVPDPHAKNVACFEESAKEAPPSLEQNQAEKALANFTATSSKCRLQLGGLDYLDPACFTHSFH


How the values were obtained:
[1] = molecular target: T1, T47D (native PRLR expressing cell line); experiment: FACS cell surface binding
Protocol: (§1) The ability of anti-PRLR antibodies to selectively bind PRLR expressing cell lines was next determined. Human, monkey macaca fascicularis, and mouse PRLR constructs with an HA tag were stably introduced into HEK293 cells via Lipofectamine 2000-mediated transfection methodology. Transfectants (HEK293/hPRLR, HEK293/mfPRLR and HEK293/mPRLR) were selected for at least 2 weeks in complete growth media plus G418.
(§2) Cell surface expression of PRLR on 293/hPRLR cells was assessed via FACS analysis. Briefly, 1×10^5 cells were incubated with 10 μg/ml of Control antibody I, or an isotype control for 30 min on ice in antibody dilution buffer. Following two washes with antibody dilution buffer, cells were incubated with 10 μg/ml of PE conjugated anti-human secondary antibodies for 30 min on ice. Following two additional washes, samples were run on a Hypercyt® cytometer and analyzed in FORECYT™ (IntelliCyt, Albuquerque, N. Mex.). The mean fluorescence intensities (MFI) were expressed as fold change above isotype control levels (background). FACS binding confirmed that Control I selectively bound to 293/hPRLR expressing cells with MFIs that were 30 fold above background (isotype ctrl) levels and less than 2 fold binding on parental cells.
(§3) Next, the anti-PRLR antibodies of the present invention were tested via FACS for selective binding to the engineered overexpressing PRLR HEK293 cell lines, as well as to non-expressing HEK293 cells and a native PRLR expressing cell line (T47D).

HEK293/hPRLR = molecular target: T2, HEK293/hPRLR; experiment: FACS cell surface binding
Protocol: as §1, §2, §3

[2] = system: HEK293 (non-expressing parental cells); experiment: FACS cell surface binding
Protocol: as §1, §2, §3

HEK293/mPRLR = molecular target: T3, HEK293/mPRLR; experiment: FACS cell surface binding
Protocol: as §1, §2, §3

[3] = molecular target: T4, PRLR-expressing cells (T47D); experiment: Antibody binding and internalization by PRLR-expressing cells (imaging); type: cell-based; conditions: [mAb] (0.67 nM); for % Internalization relative to Control I: alexa488 intensity in intracellular vesicles, 1 h at 37° C.; for % Total Binding relative to Control I: whole cell alexa488 intensity at 37° C.
Protocol: In this Example, the internalization of anti-PRLR antibodies by PRLR-expressing cells (T47D) was assessed. Briefly, 20,000 T47D cells were seeded in collagen coated 96 well plates. […] Cells were then incubated with alexa488 conjugated anti-hFc Fab secondary antibodies for 30 minutes on ice followed by two additional PBS washes. Antibodies were allowed to internalize for 1 h at 37° C. in internalization buffer (PBS+2% FBS) or remained at 4° C. Cells were fixed in 4% formaldehyde, nuclei were stained with DRAQ5 (Cell signaling), and images were acquired on the ImageXpress micro XL (Molecular Devices). Whole cell alexa488 intensity at 37° C. (Binding) and the alexa488 intensity in the intracellular vesicles at 37° C. (Internalization) were determined via Columbus image analysis software (PerkinElmer).

FACS Cell Binding (Fold Above Background) [1]	FACS Cell Binding (Fold Above Background) (HEK293/hPRLR)	FACS Cell Binding (Fold Above Background) (HEK293/mPRLR)	% Internalization relative to Control I [3]	% Total Binding relative to Control I [3]	Molecule	FACS Cell Binding (Fold Above Background) [2]
43 Fold Above Background	41 Fold Above Background	4 Fold Above Background	179.3%	209.9%	H1H6782P: anti-PRLR antibody, human IgG1 Fc; HCVR/LCVR SEQ ID NOs 66/74; non-blocking (antibody, V domains shown, human IgG1 Fc) VH: EVQLVESGGGLVQPGRSLRLSCAASGFTFDDYAMHWVRQAPGKGLEWVSGIIWNSGHIGYGDSVKGRFTISRDNAKKSLYLQMNSLRAEDTALYYCARDSGRYQSYFDYWGQGTLVTVSS VL: DIQMTQSPSTLSASVGDRVTITCRASHIISSWLAWYQQKPGKAPKVLIFKASSLESGVPSRFSGSGSGTEFTLTISSLQPDDFATYYCQQYNTYSRTFGQGTKVEIK	3 Fold Above Background
39 Fold Above Background	1 Fold Above Background	1 Fold Above Background	162.3%	173.7%	H1H6774P: anti-PRLR antibody, human IgG1 Fc; HCVR/LCVR SEQ ID NOs 34/42 (antibody, V domains shown, human IgG1 Fc) VH: EVQLVESGGGLAQPGGSLRLSCVASGFTFSTYWMSWVRQAPGKGLDWVGNIKQDGSEQNYVDSVRGRFTISRDNAKNSLFLQMNSLRAEDTGVYYCATLLTKGDYWGQGTLVTVSS VL: DIQMTQSPSSLSASVGDSVTITCRASQDISNYLDWFQQKPGKAPKSLIYAASILQGGVPSRFSGSGYGTDFTLTISSLQPEDFATYYCRQYKTYPFTFGPGTKVDIK	1 Fold Above Background
40 Fold Above Background	38 Fold Above Background	1 Fold Above Background	186.3%	191.3%	H1H6765P: anti-PRLR antibody, human IgG1 Fc; HCVR/LCVR SEQ ID NOs 18/26 (antibody, V domains shown, human IgG1 Fc) VH: EVQLVESGGGVVRPGGSLRLSCVGSGFSFDDHGMNWVRQGPGKGLEWVSGFNWNGGSTNYAESVKGRFTISRDNARNSLFLQMNSLRAEDTALYYCVRGRSGWFNDAFDVWGPGTMVTVSS VL: EIVLTQSPGTLSLSPGERATLSCRASQTINSNYLAWYRQKPGQTPRLLIYGTSSRATGIPDRFSGSGSGTDFSLTISRLEPEDFAVFYCQQYAGLPTFGPGTKVDIK	2 Fold Above Background
34 Fold Above Background	37 Fold Above Background	1 Fold Above Background	146.9%	122.8%	H1H6790P: anti-PRLR antibody, human IgG1 Fc; HCVR/LCVR SEQ ID NOs 114/122 (antibody, V domains shown, human IgG1 Fc) VH: EVQLVESGGGLVQPGGSLRLSCAASGFTFSSYAMTWVRQAPGKGLEWVSAITGSVGNTYYADSVKGRFTISRDNSKNTLYLQMNSLGAEDTAEYYCAKGAGMTTNWYLDLWGRGTLVTVSS VL: DIVMTQSPDSLAVSLGARATINCKSSQSVLYSSNNQNYLTWYQQKPGQPPKLLIKWASTRESGVPDRFSGSGSGTDFTLTISSLQAEDVAVYYCQQYASSPYTFGQGTKLEIK	1 Fold Above Background
40 Fold Above Background	37 Fold Above Background	1 Fold Above Background	165.1%	166.2%	H1H6781P: anti-PRLR antibody, human IgG1 Fc; HCVR/LCVR SEQ ID NOs 50/58 (antibody, V domains shown, human IgG1 Fc) VH: EVQLVESGGDLVQPGESLRLSCTASGFTFNSYEMNWVRQAPGKGLEWVSYISSSGGTKYYVDSVKGRFTISRDNAKKSLYLQMNSLRADDTALYYCARLNGVDVFDIWGQGTMVTVSS VL: DIQMTQSPSSLSASVGDRVTITCRASQDIFNYLAWFQQKPGKVPELLISAASTLQSGVPSRFSGSGSGTYFTLTISSLQPEDIATYYCQRYNSAPLTFGGGTKVEIK	1 Fold Above Background
40 Fold Above Background	37 Fold Above Background	2 Fold Above Background	169.1%	168.0%	H1H6785P: anti-PRLR antibody, human IgG1 Fc; HCVR/LCVR SEQ ID NOs 98/106 (antibody, V domains shown, human IgG1 Fc) VH: EVQLVESGGGLVQPGGSLRLSCAASGFTFSSYEMNWVRQAPGKGLEWISYISSRGGTIYYADSIKGRFTIYRDNARNSLYLQMNSLRAEDTAIYYCARLSGVDIFDIWGQGTMVTVSS VL: DIQMTQSPSSLSASVGDRVTITCRASQGISNYLAWYQQKPGKVPKLLIYFASTLQSGVPSRFSGGGSGTDFTLTISSLQPEDVATYYCQRYNSAPLTFGGGTKVEIK	1 Fold Above Background
38 Fold Above Background	36 Fold Above Background	2 Fold Above Background	186.3%	176.7%	H1H6762P: anti-PRLR antibody, human IgG1 Fc; HCVR/LCVR SEQ ID NOs 2/10 (antibody, V domains shown, human IgG1 Fc) VH: QVQLVESGGGVVQPGRSLRLSCAASGFTFSHYGMVWVRQPPGKGLEWVALISFDGTTKYYADSVKGRFTISRDNSKNTLYLQMNSLRAEDTAVYFCVGAIAAAAFDLWGRGTLVTVSS VL: EIVMTQSPATLSVSPGERATLSCRASQSVSSDLAWYQQKPGQAPRLLIYSASARATGIPARFTGSGSGTDFTLTISSLQSEDFAVYYCQQYNNWPMYTFGQGTKLEIK	1 Fold Above Background
